The target in experiment [1] is T1, human 4-1BB (human, UniProt Q07011 24-255).
T1 construct: whole, on cells; also called hu4-1BB; CD137
As to the kind of experiment: flow cytometry, CHO-K1 cells overexpressing human 4-1BB.

Experiment [2] deals with T2, human CEACAM5 protein (Sino-11077-H08H-100UG) (human, UniProt P06731 35-685).
T2 construct: Bought protein; also called soluble recombinant CEACAM5
T2 sequence (looked up): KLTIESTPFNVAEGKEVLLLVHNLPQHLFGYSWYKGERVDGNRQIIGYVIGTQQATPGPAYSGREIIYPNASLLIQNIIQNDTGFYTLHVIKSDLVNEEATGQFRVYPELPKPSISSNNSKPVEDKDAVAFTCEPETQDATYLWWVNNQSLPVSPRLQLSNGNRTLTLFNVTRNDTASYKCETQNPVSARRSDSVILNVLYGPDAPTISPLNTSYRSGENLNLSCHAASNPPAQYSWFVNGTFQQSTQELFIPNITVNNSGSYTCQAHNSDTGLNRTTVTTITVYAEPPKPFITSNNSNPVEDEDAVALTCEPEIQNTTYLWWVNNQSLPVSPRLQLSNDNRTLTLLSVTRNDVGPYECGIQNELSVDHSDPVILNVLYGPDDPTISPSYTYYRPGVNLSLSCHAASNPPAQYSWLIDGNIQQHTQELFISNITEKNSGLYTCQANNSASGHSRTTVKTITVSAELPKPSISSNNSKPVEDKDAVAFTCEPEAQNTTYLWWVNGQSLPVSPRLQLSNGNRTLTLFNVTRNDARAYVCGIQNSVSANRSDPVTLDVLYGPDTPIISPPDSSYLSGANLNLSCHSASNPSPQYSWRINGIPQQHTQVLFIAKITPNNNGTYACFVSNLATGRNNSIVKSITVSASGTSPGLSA
The experiment can be described thus: ELISA, human CEACAM5 protein coated at 2 ug/mL.

T1 sequence (Q07011 24-255): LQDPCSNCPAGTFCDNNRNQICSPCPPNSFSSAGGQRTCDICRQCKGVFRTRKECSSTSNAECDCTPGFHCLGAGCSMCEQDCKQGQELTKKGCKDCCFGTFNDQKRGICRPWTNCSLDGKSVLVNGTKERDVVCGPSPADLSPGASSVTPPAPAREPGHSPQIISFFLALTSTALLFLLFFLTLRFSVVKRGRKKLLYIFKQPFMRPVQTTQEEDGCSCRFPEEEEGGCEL

B1: IMMU130-263-1-3 (bispecific antibody)
heavy (part 1 of 2): EVQLVESGGGVVQPGRSLRLSCSASGFDFTTYWMSWVRQAPGKGLEWIGEIHPDSSTINYAPSLKDRFTISRDNAKNTLFLQMDSLRPEDTGVYFCASLYFGFPWFAYWGQGTPVTVSS
heavy (part 2 of 2): GGGGSGGGGSGGGGSGGGGSEVQLLESGGGLVQPGGSLRLSCAASGFTFSSSAMSWARQTPGKGFEWVSGIYSGGSTYYTESVKDRFTISRDNSKNTVYLQMNSLKPEDTAVYYCATWGTLRFGVWAEYDHWGQGTQVTVSS
light: DIQLTQSPSSLSASVGDRVTITCKASQDVGTSVAWYQQKPGKAPKLLIYWTSTRHTGVPSRFSGSGSGTDFTFTISSLQPEDIATYYCQQYSLYRSFGQGTKVEIK
notes: also called parental bispecific antibody; parental antibody; not shown: IgG1 heavy chain constant region (full IgG part, Fc of IgG1 backbone with N297A mutation); light chain constant region is not described
B1: the binding result in experiment [1] was “binds”.

B2: Labetuzumab (antibody, V domains shown)
VH: EVQLVESGGGVVQPGRSLRLSCSASGFDFTTYWMSWVRQAPGKGLEWIGEIHPDSSTINYAPSLKDRFTISRDNAKNTLFLQMDSLRPEDTGVYFCASLYFGFPWFAYWGQGTPVTVSS
VL: DIQLTQSPSSLSASVGDRVTITCKASQDVGTSVAWYQQKPGKAPKLLIYWTSTRHTGVPSRFSGSGSGTDFTFTISSLQPEDIATYYCQQYSLYRSFGQGTKVEIK
notes: also called Immu130; parental CEACAM5 antibody
For B2, in experiment [2], the binding result is listed as “binds”.

The record behind these values is patent publication US20250206834A1 (LANOVA MEDICINES, published 2025).
